Our source for the Kd values is publication PMC3338619, “Ligand Binding Study of Human PEBP1/RKIP: Interaction with Nucleotides and Raf-1 Peptides Evidenced by NMR and Mass Spectrometry” (PLoS ONE, 2012).

Assay [1] has as its target T1, Human Phosphatidylethanolamine binding protein 1 (hPEBP1) (human, UniProt P30086 1-187).
T1 construct: the NMR assignment counts 187 residues in all, from Met1 to Lys187; The NMR samples were uniformly 15N-labelled; also called RKIP; source: E. coli BL21 (DE3), pET31b, purified (anion exchange, cation exchange); 15N-labelled for NMR, non-labelled recombinant for mass spectrometry
The experiment in a line: native MS; hPEBP1 incubated with a range of peptide concentrations, bound protein fraction measured by ESI-MS; ammonium bicarbonate (ABC), pH 7.4, 25°C. The note with it: both partners purified.

The target of assay [2] is T1, Human Phosphatidylethanolamine binding …. The assay can be described thus: native MS; hPEBP1 incubated with a range of peptide concentrations, bound protein fraction measured by ESI-MS; ammonium acetate 20 mM, pH 6.6, 20°C. As to conditions: both partners purified.

Square brackets hold non-standard residues; d marks the D form. Ends that are not written are not given here. pY = N[C@@H](Cc1ccc(OP(=O)(O)O)cc1)C(=O)O; pS = N[C@@H](COP(=O)(O)O)C(=O)O

The term Kd denotes the concentration at which binding is half-saturated.

T1 sequence (P30086 whole entry): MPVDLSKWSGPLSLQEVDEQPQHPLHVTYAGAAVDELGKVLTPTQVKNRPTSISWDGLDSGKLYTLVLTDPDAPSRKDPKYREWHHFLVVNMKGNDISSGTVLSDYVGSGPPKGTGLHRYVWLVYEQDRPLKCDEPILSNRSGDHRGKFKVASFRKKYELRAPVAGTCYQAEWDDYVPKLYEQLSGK

B1: tri-phosphorylated Raf-1 peptide (residues 331-349) (peptide)
peptide: RPRGQRD[pS][pS]Y[pY]WEIEASEV
notes: Raf-1 N-region, residues 331-349; three phospho-amino acids at Ser338, Ser339 and Tyr341; also called 3P; Raf-1 peptide; Raf-1 peptide in tri-phosphorylated form; source: synthetic peptide (solid-phase, Fmoc strategy)
For the molecule B1, the Kd amounted to 11 ± 3 µM in assay [1] and 45 ± 12 µM in assay [2].
